Source: doi:10.1101/2023.02.03.526715 (bioRxiv, 2023)

Biological target: recombinant human cardiac troponin I tagged with GST (human, UniProt P19429 1-210)
Experiment: ELISA

recombinant human cardiac troponin I tagged with GST, sequence (P19429 whole entry): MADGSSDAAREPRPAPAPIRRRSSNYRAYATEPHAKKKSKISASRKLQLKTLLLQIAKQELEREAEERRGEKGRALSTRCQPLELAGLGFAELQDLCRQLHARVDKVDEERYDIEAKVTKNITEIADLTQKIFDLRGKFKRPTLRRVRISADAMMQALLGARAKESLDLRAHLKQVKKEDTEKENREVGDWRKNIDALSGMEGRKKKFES

AGRKLALKTI [P888, ten amino acid peptide corresponding to ATP synthase subunit d residues 2-11]
binding result: binds
